The values below come from publication PMC3077074.

Some results are limits rather than exact numbers.

For this assay, the target named is Helicobacter hepaticus Group III 2/2 hemoglobin (Hh Hb), wild type (Helicobacter hepaticus ATCC51449). The experiment in a line: NMR 15N relaxation.

As a reminder, the stoichiometry N is a count of units in the complex or per binding partner.

On to “Helicobacter hepaticus Group III 2/2 hemoglobin (Hh Hb), wild type (natural protein)”, for which the stoichiometry N is greater than 2.
